In the supplement of paper PMC11246515:
± gives the standard deviation of the averaged measurements.

Experiment: total protein half-life in vivo (active degradation + dilution); higher = more stable protein
[1] = wild type E. coli NCM3722, growth: C-lim chemostat, doubling time 6 h
[2] = E. coli NCM3722 delta-clpP, growth: N-lim chemostat, doubling time 6 h
[3] = E. coli NCM3722 delta-lon, growth: N-lim chemostat, doubling time 6 h
[4] = E. coli NCM3722 delta-smpB, growth: N-lim chemostat, doubling time 6 h
[5] = wild type E. coli NCM3722, growth: C-lim chemostat, doubling time 12 h
[6] = wild type E. coli NCM3722, growth: N-lim chemostat, doubling time 6 h
[7] = wild type E. coli NCM3722, growth: N-lim chemostat, doubling time 12 h
[8] = wild type E. coli NCM3722, growth: P-lim chemostat, doubling time 6 h

Q: For “MKELVVVAIGGNSIIKDNASQSIEHQAEAVKAVADTVLEMLASDYDIVLTHGNGPQVGLDLRRAEIAHKREGLPLTPLANCVADTQGGIGYLIQQALNNRLARHGEKKAVTVVTQVEVDKNDPGFAHPTKPIGAFFSDSQRDELQKANPDWCFVEDAGRGYRRVVASPEPKRIVEAPAIKALIQQGFVVIGAGGGGIPVVRTDAGDYQSVDAVIDKDLSTALLAREIHADILVITTGVEKVCIHFGKPQQQALDRVDIATMTRYMQEGHFPPGSMLPKIIASLTFLEQGGKEVIITTPECLPAALRGETGTHIIKT”, which “total protein half-life in vivo” value (wild type E. coli NCM3722, growth: C-lim chemostat, doubling time 3 h) is on record?
A: 2.78 ± 1.3 h

Q: What about the “total protein half-life in vivo” value [1] of the same sequence?
A: 5.03 h

Q: What does the source list for “MKENNLNRVIGWSGLLLTSLLSTSALADNIGTSAEELGLSDYRHFVIYPRLDKALKAQKNNDEATAIREFEYIHQQVPDNIPLTLYLAEAYRHFGHDDRARLLLEDQLKRHPGDARLERSLAAIPVEVKSVTTVEELLAQQKACDAAPTLRCRSEVGQNALRLAQLPVARAQLNDATFAASPEGKTLRTDLLQRAIYLKQWSQADTLYNEARQQNTLSAAERRQWFDVLLAGQLDDRILALQSQGIFTDPQSYITYATALAYRGEKARLQHYLIENKPLFTTDAQEKSWLYLLSKYSANPVQALANYTVQFADNRQYVVGATLPVLLKEGQYDAAQKLLATLPANEMLEERYAVSVATRNKAEALRLARLLYQQEPANLTRLDQLTWQLMQNEQSREAADLLLQRYPFQGDARVSQTLMARLASLLESHPYLATPAKVAILSKPLPLAEQRQWQSQLPGIADNCPAIVRLLGDMSPSYDAAAWNRLAKCYRDTLPGVALYAWLQAEQRQPSAWQHRAVAYQAYQVEDYATALAAWQKISLHDMSNEDLLAAANTAQAAGNGAARDRWLQQAEKRGLGSNALYWWLHAQRYIPGQPELALNDLTRSINIAPSANAYVARATIYRQRHNVPAAVSDLRAALELEPNNSNTQAALGYALWDSGDIAQSREMLEPAHKGLPDDPALIRQLAYVNQRLDDMPATQHYARLVIDDIDNQALITPLTPEQNQQRFNFRRLHEEVGRRWTFSFDSSIGLRSGAMSTANNNVGGAAPGKSYRSYGQLEAEYRIGRNMLLEGDLLSVYSRVFADTGENGVMMPVKNPMSGTGLRWKPLRDQIFFIAVEQQLPLNGQNGASDTMLRASASFFNGGKYSDEWHPNGSGWFAQNLYLDAAQYIRQDIQAWTADYRVSWHQKVANGQTIEPYAHVQDNGYRDKGTQGAQLGGVGVRWNIWTGETHYDAWPHKVSLGVEYQHTFKAINQRNGERNNAFLTIGVHW”?
A: total protein half-life in vivo [2]: 6.61 ± 0.31 h; total protein half-life in vivo [3]: 6.08 ± 0.15 h; total protein half-life in vivo [4]: 5.92 ± 0.22 h; total protein half-life in vivo [1]: 6.45 ± 0.45 h; total protein half-life in vivo [5]: 11.31 ± 0.082 h; total protein half-life in vivo [6]: 6.193 ± 0.047 h; total protein half-life in vivo [7]: 12.7 ± 1 h; total protein half-life in vivo [8]: 5.88 ± 0.08 h

Q: Which “total protein half-life in vivo” value (E. coli NCM3722 delta-clpP delta-lon delta-hslV, growth: N-lim chemostat, doubling time 6 h) does the source give for “MKEVEKNEIKRLSDRLDAIRHQQADLSLVEAADKYAELEKEKATLEAEIARLREVHSQKLSKEAQKLMKMPFQRAITKKEQADMGKLKKSVRGLVVVHPMTALGREMGLQEMTGFSKTAF [P0ADK8]” here?
A: 6.16 ± 1.2 h

Q: And the “total protein half-life in vivo” value [2]?
A: 4.37 ± 0.35 h

Q: And the “total protein half-life in vivo” value (E. coli NCM3722 delta-hslV, growth: N-lim chemostat, doubling time 6 h)?
A: 4.65 ± 0.78 h

Q: What about the “total protein half-life in vivo” value [3] of the same sequence?
A: 5.34 ± 1.4 h

Q: And the “total protein half-life in vivo” value [4]?
A: 4.26 ± 0.64 h

Q: And the “total protein half-life in vivo” value [1]?
A: > 8 h

Q: What about the “total protein half-life in vivo” value [5] of the same sequence?
A: 9.91 ± 3.4 h

Q: What about the “total protein half-life in vivo” value [6] of the same sequence?
A: 3.91 ± 0.96 h

Q: What about the “total protein half-life in vivo” value [7] of the same sequence?
A: 6.76 ± 1.6 h

Q: What about the “total protein half-life in vivo” value [8] of the same sequence?
A: 3.5 ± 0.53 h

Q: What about the “total protein half-life in vivo” value (wild type E. coli NCM3722, growth: P-lim chemostat, doubling time 12 h) of the same sequence?
A: 6.29 ± 0.48 h
